From patent US20220135655A1 (Dana-Farber, published 2022) come the findings set out here.

B1: 2A11 (scFv)
scFv: QVQLVQSGAEVKKPGSSVKVSCKASGVTFSSYAISWVRQAPGQGLEWMGGISPVFGTANYAQKFQGRVTITADDSTNTAYMELSSLRSEDTAVYYCARSRGYTVSSLAGRYFDQWGQGTLVTVSSGGGSGGGSGGGSGGGSETTLTQSPGTLSLSPGERASLSCKASESLCSTCLAWYQQKPGQAPRLIVYGATSRATGIPDRFSGSGSGTDFTLTISRLEPEDFAVYYCQQYGSSPQTFGQGTKVEIK
B2: 2C1 (scFv)
scFv: QVQLVQSGAEVKKPGSSVKVSCKASGGIFSSYAISWVRQAPGQGLEWMGGISAIFGTANYAQKFQGRVTITADESTSTAYMELSSLRSEDTAVYYCARDSGIASGYTAYMDYWGQGTLVTVSSGGGSGGGSGGGSGGGSSSELTQDPAVSVALGQTVRITCQGDSLRTSYASWYQQKPGQSPVLVIYQSTKRPSGIPERFSASSSGNTASLTITGAQAEDEADYYCNSRGSGGNPYVFGTGTKVTVL
B3: 2E11 (scFv)
scFv: QVQLVQSGAEVKKPGSSVKVSCKASGGTFSSYAISWVRQAPGQGLEWMGGINPIFGTANYAQKFQGRVTITADESTNTAYMELSSLRSEDTAVYYCARGESAYYSRNYDVWGQGTLVTVSSGGGSGGGSGGGSGGGSSYELTQPPSVSKGLRQTATLTCTGNSSNVGNQGASWLQQHQGHPPKLLSYRNDNRPSGISERFSASRSGNTASLTITGLQPEDEADYYCSAWDNSLSAWVFGGGTKLTVL
B4: 2A1 (scFv)
scFv: QVQLVQSGAEVKKPGSSVKVSCKASGVIFSSYAISWVRQAPGQGLEWMGGIIPIFGTANYAQKFQGRVTITADKSTSTAYMELSSLRSEDTAVYYCARGGSGSFDVWGQGTLVTVSSGGGSGGGSGGGSGGGSQPGLTQPPSASGTPGQRVTISCSGSSSNLGSNYVFWYQHLPGAAPKLLIYRNSQRPSGVPDRFSGSKSGTSASLAISGLQSEDEADYYCAAWDDSLNGVVFGGGTKLTVL
B5: 2B6 (scFv)
scFv: QVQLVQSGAEVKKPGSSVKVSCKASGGPFSSYAISWVRQAPGQGLEWMGGISPIFGTANYAQKFQGRVTITADKSTNTAYMELSSLRSEDTAVYYCARGRSYIVSVSPGFDVWGQGTLVTVSSGGGSGGGSGGGSGGGSQSVLTQPPSASGSPGQSVTISCTGTSSDVGGYNYVSWYQQYPGKAPKLMIYEVSKRPSGVPDRFSGSKSGTSASLAISELQSEDEADYYCASWDDSLNAYVFGSGTKVTVL
B6: 4C4 (scFv)
scFv: QVQLVQSGAEVKKPGSSVKVSCKASGGTFSSYAISWVRQAPGQGLEWMGGISPMFGTANYAQKFQGRVTITADKSTSTAYMELSSLRSEDTAVYYCAREGGYSPGGVDFDYWGQGTLVTVSSGGGSGGGSGGGSGGGSNFMLTQPHSVSESPGKTVTISCTRSSGSIASTYVQWYRQRPGSAPTTVIYEDHQRPSGVPDRFSGSLDSSSNSASLTISGLRTEDAATYYCQSFDASTLVFGGGTKLTVL
B7: 2G3 (scFv)
scFv: QVQLVQSGAEVKKPGSSVKVSCKASGGTFRSYAISWVRQAPGQGLEWMGGIMPIFGTANYAQKFQGRVTITADESTTTVYMELSSLRSEDTAVYYCARGAGVSAGPSWPFDVWGQGTLVTVSSGGGSGGGSGGGSGGGSQPGLTQPPSVSKDLRQTATLTCTGNSNNVGKQGATWLQQHQGHPPKLLSYRNNNRPSGISERFSASRSGDTASLTITGLQPEDEADYYCSAWDSSLSVWVFGGGTKLTVL
B8: 6F3 (scFv)
scFv: QVQLVQSGAEVKKPGSSVKVSCKASGGPFSSYAISWVRQAPGQGLEWMGGISPMFGTANYAQKFQGRVTITADESTSTVYMELSSLRSEDTAVYYCARGYSYYPGGGGGRNFDYWGQGTLVTVSSGGGSGGGSGGGSGGGSLPVLTQPPSASGTPGQRVTISCSGSSSNIGSNTVNWYQQLPGTAPKLLIYSNNQRPSGVPDRFSGSKSGTSASLAISGLQSEGEADYYCAAWDDSLKGRVFGGGTKVTVL
B9: 4F5 (scFv)
scFv: QVQLVQSGAEVKKPGSSVKVSCKASGVTFRSYAISWVRQAPGQGLEWMGGISGIFGTANYAQKFQGRVTITADESTSTAYMELSSLRSEDTAVYYCARSPAYYFGPNMDVWGQGTLVTVSSGGGSGGGSGGGSGGGSQSVLTQPPSVSGAPGQRVTISCTGSSSNIGAGYDVHWYQQLPGTVPKLIIYDNSNRPSGVPARFSGSKSGTSASLAISGLQSEDEAAYYCQSYDSSLSVVVFGGGTKLSVL
B10: 2H4 (anti-H1CA0409) (scFv)
scFv: QVQLVQSGAEVKKPGSSVKVSCKASGVTFSSYAISWVRQAPGQGLEWMGGITPIFGTANYAQKFQGRVTITADQSTSTAYMELSSLRSEDTAVYYCARGGGVFDVWGQGTLVTVSSGGGSGGGSGGGSGGGSSYELTQPPSVSGAPRQRVTISCSGSSSNIGNNAVNWYQQLPGKAPKLLIYYDDMLPSGVSDRFSGSKSGSSASLAISGLQSEDEADYYCAAWDDSLSGPVFGGGTNLTVL
B11: 5A8 (scFv)
scFv: QVQLVQSGAEVKKPGSSVKVSCKASGGTFSSYAISWVRQAPGQGLEWMGGISPIFGTANYAQKFQGRVTITADESTSTVYMELSSLRSEDTAVYYCARGPGYHPAGASGQFFDLWGQGTLVTVSSGGGSGGGSGGGSGGGSSYELTQPPSVSKDLRQTATLTCTGNSNNVGNQGAAWLQQHQGHPPKLLSYRNNHRPSGISDRSSASRSGDTASLTITGLQPEDEADYYCSAWDSSLSAWVFGGGTKLTVL
B12: 2F1 (scFv)
scFv: QVQLVQSGAEVKKPGSSVKVSCKASGGTFSSYAISWVRQAPGQGLEWMGGITPLFGTANYAQKFQGRVTITADDSTSTAYMELSSLRSEDTAVYYCARGPTLYSPPVFDVWGQGTLVTVSSGGGSGGGSGGGSGGGSQTVVTQEPSFSVSPGGTITLTCGLSSGSVSTTNYPSWYQQTPGRTPRTLIYNTNTRSSGVPDRFSGSILGNKAALTITGAQAGDESDYYCVLYMGRGIYVFGSGTKVSVL
B13: 2H3 (scFv)
scFv: QVQLVQSGAEVKKPGSSVKVSCKASGGPFSSYAISWVRQAPGQGLEWMGGIIPIFGTANYAQKFQGRVTITADESTSTAYMELSSLRSEDTAVYYCARGTDYSGYRGFDVWGQGTLVTVSSGGGSGGGSGGGSGGGSQTVVTQEPSFSVSPGGTVTLTCALSSGSVSSFNYASWYQQTPGQAPRTLISNTNTRSSGVPDRFSGSILGNKATLTITGAQADDESHYYCALYVGGGISVFGGGTKLTVL
B14: 9H3 (scFv)
scFv: QVQLVQSGAEVKKPGSSVKVSCKASGGIFSSYAISWVRQAPGQGLEWMGGISPIFGTANYAQKFQGRVTITADESTNTAYMELSSLRSEDTAVYYCARSGGYYDYGVGYDQWGQGTLVTVSSGGGSGGGSGGGSGGGSQPVLTQPPSASGTPGQRVTISCSGGRSNIGSNTVNWYQQLPGTAPKLLIYSNNHRPSGVPDRFSGSKSGNTASLTISGLQAEDEADYYCQSYDSSVVFGGGTKLTVL
B15: 2E12 (scFv)
scFv: QVQLVQSGAEVKKPGSSVKVSCKASGVTFSSYAISWVRQAPGQGLEWMGGISPMFGTANYAQKFQGRVTITADESTNTAYMELSSLRSEDTAVYYCARGGGYYPAGVGRYDVWGQGTLVTVSSGGGSGGGSGGGSGGGSDIVMTQSPDSLAVSLGERATINCKSSQNVLYSSNNKNNLAWYQQRPGQPPKVLLYWASTRASGVPDRFSGSGSGTDFTLTINSLQAEDVALYYCQQYYGKPFTFGPGTKVEIK
B16: 5B9 (scFv)
scFv: QVQLVQSGAEVKKPGSSVKVSCKASGVTFSSYAISWVRQAPGQGLEWMGGISPMFGTANYAQKFQGRVTITADESTNTAYMELSSLRSEDTAVYYCARGRGYAPDALTNFDVWGQGTLVTVSSGGGSGGGSGGGSGGGSEIVLTQSPDSLAMSLGERATVNCKSSRSLFDSSDNKNYLAWYQKKPGQPPQLLIYWASTRQSGVPDRFSGSGSGTDFTLTISSLQAEDVAVYYCQQYFSSPPIFTFGPGTKVEIK

The target of the test is A/California/04/2009 (H1CA0409) recombinant HA (influenza A virus A/California/04/2009, UniProt P26140 18-529). Kind of test: phage display panning (immunotube) against trimeric HA.
Consider B1, for which the binding result is recorded as “binds”. B2: the binding result is “binds”. Turning to B3, the binding result is on record as “binds”. Consider B4, for which the binding result was “binds”. For B5, the binding result was “binds”. In the case of B6, the binding result was “binds”. Consider B7, for which the binding result is given as “binds”. Take B8: the binding result is “binds”. As to B9, the binding result is given as “binds”. Turning to B10, the binding result is recorded as “binds”. For B11, the binding result was “binds”.

For B12, the binding result is reported as “binds”.

Consider B13, for which the binding result is given as “binds”. For B14, the binding result is recorded as “binds”. Regarding B15, the binding result is given as “binds”. In the case of B16, the binding result is recorded as “binds”.
